Assay results as given in patent US12551573B2, “Compositions and methods for the targeting of PCSK9” (Scribe Therapeutics Inc., priority 2022, dated 2026).

B1: DOMAIN_13691 (protein, listed as Sapajus apella)
chain: AQESVTFEDVAVNFTDREWQCLTYAQRHLYKDVMLENYGNMVSVGFLFPKPPLISHLERGVEPCVQDPQDRESLSCSCLVS
B2: DOMAIN_14714 (protein, listed as Odocoileus virginianus)
chain: PQESVTFEDVAVNFSYEEWQCLTHAQRHLYTDVMLENYGNMVSLGFSFSKPPLISRLEQGTEPYVQDRQDWEFLNCSYPAA
B3: DOMAIN_14746 (protein, listed as Odocoileus virginianus)
chain: VTELLTFKDISVDFTQEEWGQLAPAHRNLYREVMLENYGNLVSVAGCQLSKPSVISQLEKGEEPWMTEKEGAGDPSSDLKS
B4: DOMAIN_14287 (protein, listed as Bos indicus)
chain: VQGSVSFEDVAVGFSQEEWQILGPSQKALYWDVMLENYCNLVSVGYQAPTPNSLFQLEQGGPPWTVEGAALSPTCSGKKLY
B5: DOMAIN_14082 (protein)
chain: SPTLVTFKDIHVNFTREEWNLLDAAQQIMYKDVMLENYKNLVSVGHQLPKPDVILQLEKGEEPWLVERGVRQDTRPDWDTA
modifications: Phyllostomus discolor
B6: DOMAIN_14546 (protein)
chain: GLLSFEDVALYFTREEWDTLDWAQKALYRDVMLDNYRHIVSLGFPFPKPEVICQLEQWEEPWILDLPRAGTRKASGSACPD
modifications: Muntiacus muntjak
B7: DOMAIN_17317 (protein, listed as Otolemur garnettii)
chain: SQASVSFKDVNVEFTQDEWQQMGPAQRNLYRDVMLENYSNLVSVGYCIFKPKVIFRLEQGEEPWSSEEEFSSQRRPKNYRD
B8: DOMAIN_18563 (protein, listed as Aotus trivirgatus)
chain: IQGQVNFEDVFVYFSQEEWVLLDEAQRLLYRDVMLENFALMASLGHTSFTSHTVASLVMGPDWVDVTPAVATGTLSGSGPG
B9: DOMAIN_16688 (protein)
chain: SQEQVSFKDVCVDFTREEWYLLDPAQKILYRDVILENYSHLVSVGNCITKPEVIFKIEQGEEPWILEERFPKQCCSERNWK
modifications: Lipotes vexillifer
B10: DOMAIN_13539 (protein, listed as Gorilla sp.)
chain: CYQDSVTFDDVAVDFTQEEWTLLDSTQRSLYSDVMLENYKNLATVGGQIIKPSLISWLEQEESRTVQGGVLRGRKTQWRGT
B11: DOMAIN_13331 (protein, listed as Macaca fascicularis)
chain: FQGSISFKDVTVGFTQEEWQHLDPSQRALYRDVMLENYSNLVSVGYCVHKPEVISRLEQGEEPWRLEEEFPSQSFPVWTAD
B12: DOMAIN_11908 (protein, listed as Canis lupus)
chain: CEGSVSFEDVTMDFSREEWQQLDPAQRCLYQDVMLEIYSHLLFVGYNIPNPEIISRMEKGEEPWMREIQLPHQRHRERAFG
B13: DOMAIN_12550 (protein, listed as Ailuropoda melanoleuca)
chain: SDEAFSFEDLSVDFTQKEWQLLNPGQKDLYKDVMLENYSSLVSLGYEIMKPDVIFKLEQGEEPWIGDGEVPSSGCPADMSY
B14: DOMAIN_11359 (protein, listed as Sus scrofa)
chain: AQGQVTFEDVAVCFSQEEWGLLDETQRLLYRSVMLETFSLMASLGLTSSRTHDISQLERWGEPFLSASGAMRATRPTGCWH
B15: DOMAIN_12901 (protein, listed as Macaca fascicularis)
chain: MAFEDVAVYFSQEEWGLLDTAQRALYRHVMLENFTLVTSLGLSTSRPHVVIQLERGEEPWVPSGKDMTLARNTYRRLNAGE
B16: DOMAIN_12590 (protein, listed as Bos indicus)
chain: AQEPVTFNDVAVDFTQEEWGQLDLVQRTLYRDVMLETYGHLLSVGNQITKPEVISLLEQGEEPWSMEPAYPLQGTCPAPEI
B17: DOMAIN_11314 (protein, listed as Sus scrofa)
chain: VTFEDVALYFSRDEWRLLDEAQRRLYHDVMLQNFSLISSLGCCCGAEDAESPFQPSMFRDVSQARTLKAASLSQKNHPCEK
B18: DOMAIN_11944 (protein, listed as Bos indicus)
chain: PQESVTFEDVAVNFSHEEWQCLTHAQRHLYKDVMLENYGNMVSLGFSFSKPPLISRLEQGTEPYVQDRQDWEFLSCSYPVS
B19: DOMAIN_12896 (protein, listed as Macaca fascicularis)
chain: DTVVFEDVVVGFTLEEWALLNPAQRNLYREVMLETFKHLASVDNEAQPKTNGSISQQDTSGEKLSLKQKIEKFTRKHTWAS
B20: DOMAIN_12114 (protein, listed as Neophocaena asiaeorientalis)
chain: VQASLSFEDVAVRFTWEEWQLLDPSQKDLYRNVMLENYCNLVSVGYQTPKPDSLFQLEQGEPPWRVEGAGQSQTCPEEIWE
B21: DOMAIN_12206 (protein, listed as Bos mutus)
chain: QEQVSFKDVCVDFTQEEWYLLDPAQKILYRDVILENYSHLVSVGNCITKPEVIFKIEQGEEPWILEERFPKQWHSGKSYKY
B22: DOMAIN_12285 (protein, listed as Gorilla sp.)
chain: EPGAVSFADVAVYFCREEWGCLRPAQRTLYRDVMRETYGHLSALGIGGKKPALISWVEEEAELWGPAAQDPEVAKCPTQTD
B23: DOMAIN_12057 (protein)
chain: LLESVTFGDVAVVFSRDEWLHLDAAQRSLYREVMLENYSALVSLGIPLSIPKLICQLQQGEDPCMVEREIPQDVCLGFKTW
modifications: Muntiacus muntjak
B24: DOMAIN_11581 (protein, listed as Equus caballus)
chain: LQVSVSFEDVTVDFSREEWQHLDPAQRRLYRDVTLENYSHLCSVGYQVPKPEVIFKLEQGEGPWMLEGEAPHQSCSDDDIG
B25: DOMAIN_12912 (protein)
chain: LQVSVSFEDVTVNFSREEWQHLDPAQRRLYRDVTLENYSHLRSVGYQVPKPEVIFKLEQGEGPWTLEGETPHQSCSGEDIG
modifications: Puma concolor
B26: DOMAIN_13269 (protein, listed as Desmodus rotundus)
chain: LQVSVSFEDVTVDFSREEWQHLDPAQRRLYWDVTLENYSHLLSVGYQVPKPEVILKLEQGEGPWTLEGETPHQSCSDEDIG
B27: DOMAIN_11202 (protein)
chain: RQAFLAFGDVTVDFTQKEWRLLSPAQRALYREVTLENYSHLVSLGILHSKPELIRRLEQGEAPWGEERRRRPGPCAGIYAE
modifications: Nomascus leucogenys
B28: DOMAIN_11988 (protein)
chain: MAFEDVAVHFSQEEWGLLDTAQRSLYRRVMLENFALLASLGLSVSRPHVVTQLERGEEPWVLSGVDVTLPQDAQRRPRRGS
modifications: Muntiacus muntjak
B29: DOMAIN_11312 (protein, listed as Sus scrofa)
chain: ALGSVTFRDVAVFFSQDEWLHLDSAQKTLYQEVMLENYSTLVSLGIPFSMPKVICQLQQGEDPCMVEGEALRDPCLDFKTW
B30: DOMAIN_13277 (protein, listed as Macaca fascicularis)
chain: MTFEDVSVEFTQGEWGQLNPAQKDLYREVMLENFRNLAFLGLPVSKPYVICQLEEGGEPFIVEREVSTGAYSDWERRSKSK
B31: DOMAIN_11307 (protein, listed as Mandrillus leucophaeus)
chain: MAFEDVAVYFSQEEWGLLDTAQRALYRRVMLDNFALVASLGLSTSRPRVVIQLERGEEPWVPSRTDTILSRNTYRRRNPGS
B32: DOMAIN_12755 (protein, listed as Oryctolagus cuniculus)
chain: SLGPVSFKDVAVGFTQEEWRQLEPAQRRTYREVMLENYSHLVAVGCHFIKPDVITKLERGEEPWIEGGFLPQGCADEVWQA
B33: DOMAIN_11796 (protein, listed as Sus scrofa)
chain: FRGPVTFKDITVEFTQEEWQLLDNAQRTLYREVMQENYHHLISVGYCVNKPNAVFKLKQGKEPWILEVEFPRRNNPEDLWN
B34: DOMAIN_11097 (protein, listed as Mandrillus leucophaeus)
chain: KEASVAFRDVAVDFTQEEWRLLSPAQRTLHREVMLETYNHLVSLEIPSSKPKLIAQLERGEEPWREERKCSLDLCPESKPE
B35: DOMAIN_11321 (protein)
chain: GKELLSFEDVAMYFTREEWGHLNLGQKDLYRDVMLENYRNMVLLGFQFPKPEVICQLENWDEQWILDLPRAGNRKASGSAC
modifications: Nomascus leucogenys
B36: DOMAIN_13121 (protein, listed as Macaca fascicularis)
chain: GKELLSFEDVAMYFTREEWGRLDWGQKDLYRDVMLENYRNMVLLGFQFPKPEVICQLENWDEQWILDLPRAGSRKASGSAC
B37: DOMAIN_12231 (protein)
chain: PQESVAFEDVAVYFTAKEWDIMVPAERALYRDVMLENYEAVAFVVPPTSKPALVSHLEQGKESCFTRPQGVLCRNDWRAGL
modifications: Nomascus leucogenys

These molecules were tested on HBEGF locus. Conditions: high-throughput screen of dXR repression of the HBEGF gene; abundance of each domain in the library before and after diphtheria toxin selection; HEK293T cells.
Assay type: cell-based, human
For B1, the “Log2 (fold change)” value was 2.6205. B2 was tested, and the “Log2 (fold change)” value was 3.2752. B3 was tested, and the “Log2 (fold change)” value was 2.605. With B4 the “Log2 (fold change)” value was 3.6232. B5 was tested, and the “Log2 (fold change)” value was 3.2495. For B6, the “Log2 (fold change)” value was 3.5039.

Same assay, conditions: high-throughput screen of dXR repression of the HBEGF gene; change in abundance of each domain in the library before and after diphtheria toxin selection
With B7 the “Log2 (fold change)” value was 3.4551. B8 was tested, and the “Log2 (fold change)” value was 3.0406. With B9 the “Log2 (fold change)” value was 3.5601. In the case of B10, the “Log2 (fold change)” value is reported as 3.4924. In the case of B11, the “Log2 (fold change)” value is reported as 3.5154.

Same assay, conditions: repressor domain in dXR, repression of the HBEGF gene; abundance of domain in library after vs before diphtheria toxin selection
With B12 the “Log2 (fold change)” value was 2.894. For B13, the “Log2 (fold change)” value was 3.0229. For B14, the “Log2 (fold change)” value was 3.1036. With B15 the “Log2 (fold change)” value was 3.5686. B16 was tested, and the “Log2 (fold change)” value was 2.5531. B17 was tested, and the “Log2 (fold change)” value was 2.9575. B18 was tested, and the “Log2 (fold change)” value was 3.2762. B19 was tested, and the “Log2 (fold change)” value was 2.0413. In the case of B20, the “Log2 (fold change)” value is reported as 3.3227. For B21, the “Log2 (fold change)” value was 2.9101. In the case of B22, the “Log2 (fold change)” value is reported as 2.2573. B23 was tested, and the “Log2 (fold change)” value was 2.0631. For B24, the “Log2 (fold change)” value was 3.1882. In the case of B25, the “Log2 (fold change)” value is reported as 2.7422. B26 was tested, and the “Log2 (fold change)” value was 2.7236. With B27 the “Log2 (fold change)” value was 3.5851. B28 was tested, and the “Log2 (fold change)” value was 3.5916. In the case of B29, the “Log2 (fold change)” value is reported as 3.8532. With B30 the “Log2 (fold change)” value was 2.9151. With B31 the “Log2 (fold change)” value was 3.6383. B32 was tested, and the “Log2 (fold change)” value was 2.8082. In the case of B33, the “Log2 (fold change)” value is reported as 2.2811. In the case of B34, the “Log2 (fold change)” value is reported as 3.239. B35 was tested, and the “Log2 (fold change)” value was 2.9718. In the case of B36, the “Log2 (fold change)” value is reported as 3.353. In the case of B37, the “Log2 (fold change)” value is reported as 2.6703.
